B1: L-asparaginase, Q8TZE8 (parent)
chain: MKILLIGMGGTIASVKGENGYEASLSVKEVLDIAGIKDCEDCDFLDLKNVDSTLIQPEDWVDLAETLYKNVKKYDGIIVTHGTDTLAYTSSMISFMLRNPPIPIVFTGSMIPATEENSDAPLNLQTAIKFATSGIRGVYVAFNGKVMLGVRTSKVRTMSRDAFESINYPIIAELRGEDLVVNFIPKFNNGEVTLDLRHDPKVLVIKLIPGLSGDIFRAAVELGYRGIVIEGYGAGGIPYRGSDLLQTIEELSKEIPIVMTTQAMYDGVDLTRYKVGRLALRAGVIPAGDMTKEATVTKLMWILGHTNNVEEIKVLMRKNLVGELRD

Variants of: B1
Settings: Pyrococcus furiosus (strain ATCC 43587 / DSM 3638 / JCM 8422 / Vc1); pH 8; 60 °C; GdnHCl; Fluorescence; Tris; NaCl; transition: 2; reversible: yes; structure 4Q0M; whole UniProt chain shown

| Variant | denaturant m value | denaturant midpoint (higher = more stable) | unfolding free energy | ddG of mutation (higher = less stable) |
| --- | --- | --- | --- | --- |
| MKILLIGMGGTIASVKGENGYEASLSVKEVLDIAGIKDCEDCDFLDLKNVDSTLIQPEDFVDLAETLYKNVKKYDGIIVTHGTDTLAYTSSMISFMLRNPPIPIVFTGSMIPATEENSDAPLNLQTAIKFATSGIRGVYVAFNGKVMLGVRTSKVRTMSRDAFESINYPIIAELRGEDLVVNFIPKFNNGEVTLDLRHDPKVLVIKLIPGLSGDIFRAAVELGYRGIVIEGYGAGGIPYRGSDLLQTIEELSKEIPIVMTTQAMYDGVDLTRYKVGRLALRAGVIPAGDMTKEATVTKLMWILGHTNNVEEIKVLMRKNLVGELRD [W60F] | 4.23 kcal/mol/M | 2.82 M | 11.9 kcal/mol |  |
| MKILLIGMGGTIASVKGENGYEASLSVKEVLDIAGIKDCEDCDFLDLKNVDSTLIQPEDWVDLAETLYKNVKKYDGIIVTHGTDTLAYTSSMISFMLRNPPIPIVFTGSMIPATEENSDAPLNLQTAIKFATSGIRGVYVAFNGKVMLGVRTSKVRTMSRDAFESINYPIIAELRGEDLVVNFIPKFNNGEVTLDLRHDPKVLVIKLIPGLSGDIFRAAVELGYRGIVIEGYGAGGIPYRGSDLLQTIEELSKEIPIVMTTQAMYDGVDLTRYKVGRLALRAGVIPAGDMTKEATVTKLMFILGHTNNVEEIKVLMRKNLVGELRD [W301F] | 6.21 kcal/mol/M | 3.18 M | 19.7 kcal/mol | -3.98 kcal/mol |

Source: FireProtDB (doi:10.1007/s00792-015-0748-z)
